Experimental data from patent publication CN114349858A (YOUMALI WUHAN BIOTECHNOLOGY CO LTD, dated 2022).

Molecular target: T1, 重组人IL-10蛋白 (human, UniProt P22301 19-178)
T1 construct: The construct used in the Biacore and ELISA assays is only called recombinant human IL-10 protein; also called 人白介素-10; 重组表达的人白介素-10
Assay: SPR, Biacore 3000; antibody immobilised on CM5 chip, recombinant human IL-10 at 20, 12.3, 4.1, 1.37 and 0.46 nM

T1 sequence (P22301 19-178 limits assumed): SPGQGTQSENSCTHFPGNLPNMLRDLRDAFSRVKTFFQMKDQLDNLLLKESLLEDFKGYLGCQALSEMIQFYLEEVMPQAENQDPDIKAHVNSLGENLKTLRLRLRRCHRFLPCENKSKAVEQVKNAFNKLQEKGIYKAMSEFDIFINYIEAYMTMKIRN

B1: 抗人IL-10兔单克隆抗体B (antibody, V domains shown)
VH: QSLEESGGDLVKPGASLTLTCTASGFSFSGSYGICWVRQAPGKGLEWIACIVTSSGTTYYASWAKGRFTISKTSSTTVTLQMTSLTAADTATYFCARDLLAYYTGNLWGPGTLVTVSS
VL: ALVMTQTPASVEAAVGGTVTINCQASQSISNELSWYQQKPGQRPELLIYGASRLESGVPSRFSGSGSGTEFTLTISDLECDDAATYYCQSAYYSSSVDIYNTFGGGTEVVVKG
notes: Used biotin-labelled as the detection antibody in the sandwich ELISA; also called B抗体; 兔抗人IL-10单克隆抗体B
B1 gave a Kd of 9.68 pM.
